Series [1] deals with the molecule itself. As to the kind of experiment: crystal structure.
Series [2] deals with the molecule itself. As to the kind of experiment: crystal structure. The source holds these as a separate data set.

Where two headings read alike, the source gives them in different places.

B1: OpgG from E. coli (EcOpgG) D361N mutant (enzyme, Escherichia coli, UniProt P33136 23-511, looked up)
chain: FSIDDVAKQAQSLAGKGYETPKSNLPSVFRDMKYADYQQIQFNHDKAYWNNLKTPFKLEFYHQGMYFDTPVKINEVTATAVKRIKYSPDYFTFGDVQHDKDTVKDLGFAGFKVLYPINSKDKNDEIVSMLGASYFRVIGAGQVYGLSARGLAIDTALPSGEEFPRFKEFWIERPKPTDKRLTIYALLDSPRATGAYKFVVMPGRDTVVDVQSKIYLRDKVGKLGVAPLTSMFLFGPNQPSPANNYRPELHDSNGLSIHAGNGEWIWRPLNNPKHLAVSSFSMENPQGFGLLQRGRDFSRFEDLDDRYDLRPSAWVTPKGEWGKGSVELVEIPTNDETNNNIVAYWTPDQLPEPGKEMNFKYTITFSRDEDKLHAPDNAWVQQTRRSTGDVKQSNLIRQPDGTIAFVVDFTGAEMKKLPEDTPVTAQTSIGDNGEIVESTVRYNPVTKGWRLVMRVKVKDAKKTTEMRAALVNADQTLSETWSYQLPANE
For the protein B1, the binding result in the series “crystal structure [1]” is “binds”.

B2: OpgD from E. coli (EcOpgD) D388N mutant (enzyme, Escherichia coli, UniProt P40120 33-551, looked up)
chain: ADSDIADGQTQRFDFSILQSMAHDLAQTAWRGAPRPLPDTLATMTPQAYNSIQYDAEKSLWHNVENRQLDAQFFHMGMGFRRRVRMFSVDPATHLAREIHFRPELFKYNDAGVDTKQLEGQSDLGFAGFRVFKAPELARRDVVSFLGASYFRAVDDTYQYGLSARGLAIDTYTDSKEEFPDFTAFWFDTVKPGATTFTVYALLDSASITGAYKFTIHCEKSQVIMDVENHLYARKDIKQLGIAPMTSMFSCGTNERRMCDTIHPQIHDSDRLSMWRGNGEWICRPLNNPQKLQFNAYTDNNPKGFGLLQLDRDFSHYQDIMGWYNKRPSLWVEPRNKWGKGTIGLMEIPTTGETLNNIVCFWQPEKAVKAGDEFAFQYRLYWSAQPPVHCPLARVMATRTGMGGFSEGWAPGEHYPEKWARRFAVDFVGGDLKAAAPKGIEPVITLSSGEAKQIEILYIEPIDGYRIQFDWYPTSDSTDPVDMRMYLRCQGDAISETWLYQYFPPAPDKRQYVDDRVMS
Turning to B2, in “crystal structure [2]”, the binding result was “binds”.

These data come from publication doi:10.1101/2023.03.29.533101 (bioRxiv, 2023).
